Reference: the supplement of paper PMC10567573

B1: FBXO34 (parent)
chain: PRYREDPCKQCKKKYVKGDVSLCR
B2: WDFY1 (parent)
chain: FWNIKQMWDTKTLGLRQHHCRKCG

Variants of: B1
Test: protein stability index of a GFP-peptide fusion (GPS, HEK-293T) (PSI 1-6); higher = more stable
Settings: c terminus: a fixed tail appended
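Further: lentivirally expressed fusions sorted by FACS into six bins by GFP to DsRed ratio, PSI derived from sequencing read proportions per bin multiplied by bin number.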

Variant	protein stability index
R4T	2.97
R4K	2.79
R4A	3.38
R4G	3.25
R4L	2.89
R4E	3.3
R4N	2.99
R4H	2.96
R4V	2.77
R4Q	2.79
R4Y	2.66
R4C	2.94
R4P	2.72
R4F	2.69
R4W	2.01
R4S	2.78
R4D	3.17
R4I	2.67
R4M	2.61
P1K	3.65
P1C	2.02
P1D	2.96
P1H	2.85

Variant	protein stability index
P1Q	2.86
P1E	3.4
P1A	3.11
P1T	2.75
P1L	1.93
P1N	3.42
P1W	1.78
P1Y	2.45
P1M	2.75
P1I	2.34
P1F	2.61
P1R	2.96
P1S	2.6
P1V	2.22
P1G	2.89
E5V	2.83
E5M	2.66
E5D	2.94
E5R	2.8
E5W	2.33
E5G	2.68
E5H	2.76
E5K	3.27

Variant	protein stability index
E5N	2.58
E5F	2.57
E5C	2.7
E5I	2.46
E5S	2.58
E5A	2.66
E5Y	2.51
E5P	2.77
E5Q	2.83
E5T	2.67
E5L	2.78
Y3A	3.39
Y3T	2.65
Y3D	2.82
Y3G	3.39
Y3M	2.56
Y3F	2.93
Y3R	3.24
Y3H	2.67
Y3N	2.84
Y3P	3.07
Y3S	2.8
Y3C	2.77

Variant	protein stability index
Y3E	4
Y3I	2.76
Y3K	2.63
Y3L	2.73
Y3W	2.55
Y3Q	2.74
Y3V	2.28
R2M	2.49
R2C	2.41
R2L	2.76
R2Y	2.64
R2G	3.47
R2T	2
R2H	2.86
R2F	2.66
R2I	2.98
R2E	2.97
R2N	2.85
R2S	3.03
R2A	2.96
R2V	2.98
R2W	3.25
R2P	2.75

Variant	protein stability index
R2D	3.03
R2K	2.52
R2Q	3
D6P	2.22
D6G	2.48
D6R	3.19
D6A	2.46
D6L	2.15
D6E	3.14
D6N	1.92
D6K	3.06
D6T	2.61
D6H	2.61
D6Q	3.71
D6M	2.92
D6C	2.61
D6F	2.35
D6I	2.21
D6S	2.5

Variants of: B2
Test: as above
Settings: c terminus: a fixed tail appended

Variant	protein stability index
G24Y	2.01
G24E	2.18
G24S	2.1
G24V	2.01
G24I	2.11
G24M	1.85
G24L	2.22
G24F	1.96
G24N	2.09
G24Q	2.21
G24K	2.5
G24T	2.29
G24H	2.13
G24W	2.12
G24C	2.22
G24D	2.15
G24R	2.35
G24P	1.88
G24A	1.84

Variant	protein stability index
R21W	2.46
R21S	2.16
R21Q	2.28
R21T	2.62
R21P	2.07
R21Y	2.14
K22Q	2.01
K22C	1.7
K22S	1.66
K22Y	2.2
K22F	3.26
K22V	1.41
K22G	1.82
K22P	1.98
K22M	1.03
K22L	1.34
K22N	1.99
K22H	1.44
K22E	1.6

Variant	protein stability index
K22A	1.59
K22D	3.4
C23T	2.34
C23E	1.93
C23M	2.6
C23I	1.93
C23H	2.78
C23D	2.82
C23Q	2.3
C23N	2.57
C23Y	2.04
C23W	1.75
C23A	2.18
C23K	2.71
C23R	2.09
C23F	1.59
C23L	2.81
C23P	2.19
